Holding throughout (assay): SEC; Superdex 200 (10/300), 4°C, protein at 1 mg/mL, 20 mM HEPES-NaOH pH 7.5, 1.0 M NaCl, 20 µM ZnCl2, 5 mM β-mercaptoethanol; dimer, and dimer to tetramer
Assay [1] addresses RSV IN(1–270) (Rous sarcoma virus (Prague A strain)).
Assay [2] has as its target RSV IN(1–270)•C23S (Rous sarcoma virus (Prague A strain)).
Assay [3] addresses RSV IN(49–270) (Rous sarcoma virus (Prague A strain)).

“And” between values parts separate entries of the source, which are not always exact repeats. Equal values may be shown once.

Regarding RSV IN(1–270) (domain or fragment), in assay [1], the stoichiometry N was 2 and 4.
In the case of RSV IN(1–270)•C23S (domain or fragment), the stoichiometry N in assay [2] turned out to be 2.
Regarding RSV IN(49–270) (domain or fragment), in assay [3], the stoichiometry N is 2.

A word on the stoichiometry N: it is a count of units in the complex or per binding partner.

The record behind these values is PMC3579926.
